According to paper doi:10.1101/2021.07.15.452438 (bioRxiv, 2021):
Substitutions are numbered along the chain they refer to. Names may count otherwise. Like-named read-outs stand apart in the source and are kept apart here. Blank lines part the entries; values can stand above or below the binder they belong to.

Experiments:
[1] = biological target: T1, BRD4-ET domain (for ITC) (UniProt O60885 600-678); test: ITC
[2] = biological target: T1, BRD4-ET domain (for ITC); test: ITC; remark: listed apart in the source
[3] = biological target: GST-BRD2^632-710 (UniProt P25440 632-710); test: pull-down
[4] = biological target: GST-BRD3^562-640 (UniProt Q15059 562-640); test: pull-down
[5] = biological target: GST-BRD4^600-678 (UniProt O60885 600-678); test: pull-down
[6] = biological target: TurboID-BRD4-ET (UniProt O60885 600-678); test: proximity labelling

GST-BRD2^632-710, sequence (P25440 632-710): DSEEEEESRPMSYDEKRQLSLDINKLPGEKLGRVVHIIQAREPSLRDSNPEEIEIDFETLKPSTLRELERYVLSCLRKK
GST-BRD3^562-640, sequence (Q15059 562-640): as the sequence (P25440 632-710) above, with S8G, R9L, K25R, A40S, E51D, S63T, L73K, R77Q counted along it

binding result [5]: binds
B2: His6MBP-ASXL1^537-587 with the motif arginine mutated to alanine (domain or fragment)
chain: EKKPRLEDRQSFRNTIESVHTEKPQPTKEEPKVPPIAIQLSRIKPPWVVKG

binding result [5]: binds
B3: His6MBP-ASXL1^537-587 Q575A (domain or fragment)
chain: B2 chain with A37R, Q39A

Kd [2]: 1360 nM
Binder: PKVPPIRIQLSRIKPPWVVKG (domain or fragment) [His6MBP-fused ASXL1^567-587]

Continued, binder first:

B1: His6MBP-ASXL1^537-587 (domain or fragment)
chain: B2 chain with A37R
Kd [1]: 535 nM
Kd [2]: 1300 nM
binding result [3]: binds
binding result [4]: binds

B4: His6MBP-ASXL3^977-1027 (domain or fragment)
chain: EKRARIEDDQSTRNISSSSPPEKEQPPREEPRVPPLKIQLSKIGPPFIIKS
Kd [2]: 2000 nM

B5: His6MBP-ASXL2^582-634 (domain or fragment)
chain: EKRPRVTENRQHQQPFQVSPQPFLNRGDRIQVRKVPPLKIPVSRISPMPFHPS
Kd [2]: 1100 nM

B6: ASXL1^Y591X (domain or fragment)
chain: MKDKQKKKKERTWAEAARLVLENYSDAPMTPKQILQVIEAEGLKEMRSGTSPLACLNAMLHSNSRGGEGLFYKLPGRISLFTLKKDALQWSRHPATVEGEEPEDTADVESCGSNEASTVSGENDVSLDETSSNASCSTESQSRPLSNPRDSYRASSQANKQKKKTGVMLPRVVLTPLKVNGAHVESASGFSGCHADGESGSPSSSSSGSLALGSAAIRGQAEVTQDPAPLLRGFRKPATGQMKRNRGEEIDFETPGSILVNTNLRALINSRTFHALPSHFQQQLLFLLPEVDRQVGTDGLLRLSSSALNNEFFTHAAQSWRERLADGEFTHEMQVRIRQEMEKEKKVEQWKEKFFEDYYGQKLGLTKEESLQQNVGQEEAEIKSGLCVPGESVRIQRGPATRQRDGHFKKRSRPDLRTRARRNLYKKQESEQAGVAKDAKSVASDVPLYKDGEAKTDPAGLSSPHLPGTSSAAPDLEGPEFPVESVASRIQAEPDNLARASASPDRIPSLPQETVDQEPKDQKRKSFEQAASASFPEKKPRLEDRQSFRNTIESVHTEKPQPTKEEPKVPPIRIQLSRIKPPWVVKGQPT
fold enhancement of BRD4-ET binding over full-length ASXL1 [6]: 3.5 fold
fold enhancement of ET-domain binding over full-length ASXL1, peptide […] [6]: ~3 fold
